Non-standard residues stand in square brackets, D forms with d. No end group written: not given here. pS = N[C@@H](COP(=O)(O)O)C(=O)O
Legend:
Details in all cases: both partners purified
[1] = target: T1, Clathrin N-terminal domain (NTD) (human, UniProt Q00610 1-364); experiment: fluorescence polarisation; displacement: unlabelled peptide diluted 1:1 in series and added to a pre-formed complex of protein domain and FITC-labelled probe peptide (5 nM in the measurement); 50 mM sodium phosphate pH 7.4, room temperature; KD calculated from the displacement curves; technical triplicates
T1 construct: clathrin heavy chain, N-terminal domain; also called Clathrin NTD; CLTC-NTD; source: E. coli BL21-Gold(DE3), purified (GSH or Ni2+ beads), tag removed with protease
T1 sequence: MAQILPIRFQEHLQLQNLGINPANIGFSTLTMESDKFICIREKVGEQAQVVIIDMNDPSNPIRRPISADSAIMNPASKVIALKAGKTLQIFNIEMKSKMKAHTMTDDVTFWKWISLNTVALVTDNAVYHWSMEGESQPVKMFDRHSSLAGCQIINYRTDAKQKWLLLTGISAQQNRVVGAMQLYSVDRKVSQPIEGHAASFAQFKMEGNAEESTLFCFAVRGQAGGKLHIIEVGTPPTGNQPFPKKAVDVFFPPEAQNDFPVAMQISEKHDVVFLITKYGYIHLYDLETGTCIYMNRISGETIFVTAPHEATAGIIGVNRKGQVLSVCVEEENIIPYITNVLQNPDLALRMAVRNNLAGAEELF

[2] = target: T2, FITC-HIV1_Gag (HIV-1 (printed as HIV1), also: FITC label, position not given here); experiment: fluorescence polarisation; direct binding (saturation curve): 1:1 dilution series of the protein domain with 5 nM FITC-labelled peptide; room temperature; 50 mM sodium phosphate buffer pH 7.4; fitted to the quadratic equation
T2 chain: SLYPPLTSLR

[3] = target: T3, FITC-MYC (also: FITC label, position not given here); experiment: as above
T3 chain: PAAKRVKLD

[4] = target: T4, FITC-NCOR2 (also: FITC label, position not given here); experiment: as above
T4 chain: PKRTYDMMEGRVGRAI

[5] = target: T5, AP2 µ2 (human, UniProt Q96CW1 1-435); experiment: as above
T5 construct: AP-2 complex subunit mu (AP2 µ2); also called AP2 μ2; source: E. coli BL21-Gold(DE3), purified (GSH or Ni2+ beads), tag removed by protease
T5 sequence (looked up): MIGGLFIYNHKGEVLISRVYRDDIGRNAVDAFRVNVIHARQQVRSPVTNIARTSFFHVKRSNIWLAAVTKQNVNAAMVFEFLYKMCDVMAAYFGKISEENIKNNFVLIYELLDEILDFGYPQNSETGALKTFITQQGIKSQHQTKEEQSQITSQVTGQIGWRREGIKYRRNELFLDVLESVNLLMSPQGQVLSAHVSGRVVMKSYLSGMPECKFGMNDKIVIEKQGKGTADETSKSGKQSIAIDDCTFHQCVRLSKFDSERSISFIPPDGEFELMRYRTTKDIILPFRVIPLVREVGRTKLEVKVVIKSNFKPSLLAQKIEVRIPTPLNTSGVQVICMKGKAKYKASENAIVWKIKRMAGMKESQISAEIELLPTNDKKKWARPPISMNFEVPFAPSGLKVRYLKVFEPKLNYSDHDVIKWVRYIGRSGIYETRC

[6] = target: T6, GGA1 VHS (human, UniProt Q9UJY5 17-147); experiment: fluorescence polarisation; displacement of a FITC-labelled probe peptide (5 nM in the measurement) from the protein domain (1-2 fold over the probe's KD) by a dilution series of unlabelled peptide; room temperature; 50 mM sodium phosphate pH 7.4; KD calculated from the displacement curve; for KPNA4 ARM one probe for each pocket
T6 construct: GGA1 VHS domain; limits in Dataset EV3; construct limits are in Dataset EV3; also called GGA1 VHS domain; source: E. coli BL21-Gold(DE3), purified, tag removed
T6 sequence (looked up): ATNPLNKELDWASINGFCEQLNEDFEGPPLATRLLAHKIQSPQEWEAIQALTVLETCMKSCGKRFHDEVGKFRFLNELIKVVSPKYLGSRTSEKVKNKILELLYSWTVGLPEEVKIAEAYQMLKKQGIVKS

[7] = target: T7, RANBP2 RanBD4 (human); experiment: fluorescence polarisation; direct binding (saturation curve): 1:1 dilution series of the protein domain with 5 nM FITC-labelled peptide; room temperature; 50 mM sodium phosphate buffer pH 7.4; fitted to the quadratic equation
T7 construct: the sheet prints 'RanBD1 4'); also called RANBP2 RanBD1 4; RAN2BP RanBD4; source: E. coli BL21-Gold(DE3), purified (GSH or Ni2+ beads), tag removed by protease

[8] = target: T8, TSG101 UEV domain (human, UniProt Q99816 2-145); experiment: as above
T8 sequence (looked up): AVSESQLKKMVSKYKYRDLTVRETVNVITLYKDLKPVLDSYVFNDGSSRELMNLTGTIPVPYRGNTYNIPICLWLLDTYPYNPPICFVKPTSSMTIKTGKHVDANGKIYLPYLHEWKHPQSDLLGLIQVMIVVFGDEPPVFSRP

[9] = target: T9, Clathrin N-terminal domain (NTD) (human, UniProt Q00610 1-364); experiment: as above
T9 construct: clathrin heavy chain, N-terminal domain; also called Clathrin NTD; CLTC-NTD; source: E. coli BL21-Gold(DE3), purified (GSH or Ni2+ beads), tag removed by protease
T9 sequence: T1 sequence

[10] = target: SNX27 PDZ domain, MBP-tagged (human, UniProt Q96L92 43-136); experiment: as above
[11] = target: T10, GGA1 VHS domain (human, UniProt Q9UJY5 17-147); experiment: as above
T10 construct: GGA1, VHS domain; source: E. coli BL21-Gold(DE3), purified (GSH or Ni2+ beads), tag removed by protease
T10 sequence (looked up): T6 sequence (looked up)

[12] = target: T11, 14-3-3 Theta (human, UniProt P27348 1-245); experiment: as above
T11 sequence (looked up): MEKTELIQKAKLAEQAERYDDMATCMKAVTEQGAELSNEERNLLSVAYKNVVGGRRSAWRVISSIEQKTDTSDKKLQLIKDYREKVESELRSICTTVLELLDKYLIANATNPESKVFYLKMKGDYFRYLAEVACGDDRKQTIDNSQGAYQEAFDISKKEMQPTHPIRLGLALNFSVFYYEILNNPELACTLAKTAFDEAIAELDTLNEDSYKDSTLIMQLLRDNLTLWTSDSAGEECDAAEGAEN

[13] = target: T12, MAP1LC3A ATG8 (human); experiment: as above
T12 construct: MAP1LC3A, ATG8 domain; source: E. coli BL21-Gold(DE3), purified (GSH or Ni2+ beads), tag removed by protease

[14] = target: T13, GABARAPL2 ATG8 (human); experiment: as above
T13 construct: GABARAPL2, ATG8 domain; source: E. coli BL21-Gold(DE3), purified (GSH or Ni2+ beads), tag removed by protease

[15] = target: MAP1LC3B ATG8 (human); experiment: as above

B1: GTSE1 692-707 peptide phosphorylated at S705 (peptide)
peptide: YGQLIDLSSPLIQL[pS]PE
notes: not part of GTSE1; G2 and S phase-expressed protein 1 (GTSE1), human, residues 692-707; also called pS705 GTSE1; source: synthetic peptide (Glbiochem or Genecust)
B1 was tested, and the Kd [1] was 105 µM.

B2: PDCD6IP Alix V domain (domain or fragment)
chain: PVSVQQSLAAYNQRKADLVNRSIAQMREATTLANGVLASLNLPAAIEDVSGDTVPQSILTKSRSVIEQGGIQTVDQLIKELPELLQRNREILDESLRLLDEEEATDNDLRAKFKERWQRTPSNELYKPLRAEGTNFRTVLDKAVQADGQVKECYQSHRDTIVLLCKPEPELNAAIPSANPAKTMQGSEVVNVLKSLLSNLDEVKKEREGLENDLKSVNFDMTSKFLTALAQDGVINEEALSVTELDRVYGGLTTKVQESLKKQEGLLKNIQVSHQEFSKMKQSNNEANLREEVLKNLATAYDNFVELVANLKEGTKFYNELTEILVRFQNKCSDIVFARKTER
For B2, the Kd [2] was 3.6 µM.

B3: KPNA4 ARM domain (domain or fragment)
chain: GDYRVQNTSLEAIVQNASSDNQGIQLSAVQAARKLLSSDRNPPIDDLIKSGILPILVHCLERDDNPSLQFEAAWALTNIASGTSEQTQAVVQSNAVPLFLRLLHSPHQNVCEQAVWALGNIIGDGPQCRDYVISLGVVKPLLSFISPSIPITFLRNVTWVMVNLCRHKDPPPPMETIQEILPALCVLIHHTDVNILVDTVWALSYLTDAGNEQIQMVIDSGIVPHLVPLLSHQEVKVQTAALRAVGNIVTGTDEQTQVVLNCDALSHFPALLTHPKEKINKEAVWFLSNITAGNQQQVQAVIDANLVPMIIHLLDKGDFGTQKEAAWAISNLTISGRKDQVAYLIQQNVIPPFCNLLTVKDAQVVQVVLDGLSNILKMAEDEAETIGNLIEECGGLEKIEQLQNHENEDIYKLAYEIIDQFFSSDDIDEDPSLVPEAIQGGTFGFNSSANVPTEGFQF
B3 was tested, and the Kd [3] was 0.003 µM and the Kd [4] was 0.013 µM.

B4: FITC-ATG9A (peptide)
chain: FDTEYQRLEAS
modifications: also: FITC label, position not given here
With B4 the Kd [5] was 1.51 µM.

B5: GTSE1_(145–160), phosphorylated (pS) (peptide)
chain: INLFEKEKEMKKSPTS
modifications: also: phosphoserine/threonine, site not given here
B5 was tested, and the Kd [6] was 640 µM.

B6: GTSE1 692-707 peptide phosphorylated at S698 (peptide)
peptide: YGQLIDL[pS]SPLIQLSPE
notes: not part of GTSE1; G2 and S phase-expressed protein 1 (GTSE1), human, residues 692-707; also called pS698 GTSE1; source: synthetic peptide (Glbiochem or Genecust)
With B6 the Kd [1] was 123 µM.

B7: FITC-C7orf25 (peptide)
chain: KEALATPLPK
modifications: also: FITC label, position not given here
With B7 the Kd [7] was 22 µM.

B8: FITC-HIV2_Gag (peptide)
chain: GLIPTAPPAD
modifications: also: FITC label, position not given here
B8 showed a Kd [8] of 1.9 µM.

B9: FITC-NSP3 (peptide)
chain: SVDLITFDSV
modifications: also: FITC label, position not given here
With B9 the Kd [9] was 26 µM.

B10: FITC-SYT16 (peptide)
chain: GSLEMETAFNSRGFED
modifications: also: FITC label, position not given here
Work on B10 yielded a Kd [10] of 7.5 µM.

B11: FITC-IGF2R (peptide)
chain: DDSDEDLLHI
modifications: also: FITC label, position not given here
For B11, the Kd [11] was 31 µM.

B12: GTSE1 692-707 peptide, unphosphorylated (peptide)
peptide: YGQLIDLSSPLIQLSPE
notes: not part of GTSE1; G2 and S phase-expressed protein 1 (GTSE1), human, residues 692-707; also called wild-type GTSE1; source: synthetic peptide (Glbiochem or Genecust)
Work on B12 yielded a Kd [1] of 91 µM.

B13: GTSE1 692-707 peptide phosphorylated at S699 (peptide)
peptide: YGQLIDLS[pS]PLIQLSPE
notes: not part of GTSE1; G2 and S phase-expressed protein 1 (GTSE1), human, residues 692-707; also called pS699 GTSE1; source: synthetic peptide (Glbiochem or Genecust)
B13 showed a Kd [1] of 109 µM.

B14: FITC-2BTP (peptide)
chain: RQRSAP
modifications: also: FITC label, position not given here
Binder B14 has a Kd [12] of 27.8 µM.

B15: FITC-SQSTM1 (peptide)
chain: DDDWTHLSSK
modifications: also: FITC label, position not given here
B15 showed a Kd [13] of 1.36 µM, a Kd [14] of 11 µM and a Kd [15] of 2.5 µM.

From article PMC10333884 (Molecular Systems Biology, 2023)
